B1: hu8C4 AH71 (antibody, V domains shown)
VH: EVQLVESGGGLVQPGGSLRLSCAASGYTFSDYYINWVRQAPGKGLEWIGEIFPGWGNTHFSARFKGRATLSADKSKNTAYLQMNSLRAEDTAVYYCAGQDYGFLYWGQGTLVTVSS
VL: DIQMTQSPSSLSASVGDRVTITCGASENIYGALNWYQQKPGKAPKLLIYGATNLADGVPSRFSGSGSGRDFTFTISSLQPEDIATYYCQNVLSSPYTFGQGTKVEIK
B2: hu8C4 × Vectibix scFv bispecific antibody (bispecific antibody, human IgG2)
heavy: not shown
VL: B1 VL

What was measured:
[1] = target: T1, human c-Met ECD (ACROBiosystems, MET-H5227) (human, UniProt P08581 25-932); assay: SPR (BIAcore), antibody captured by anti-human IgG Fc, antigen as analyte, 1:1 Langmuir
T1 construct: extracellular domain; Bought protein
Procedure: (§1) The antibodies were diluted in HBS-EP buffer (0.01 M HEPES pH 7.4, 0.15 M NaCl, 3 mM EDTA and 0.005% (v/v) Surfactant P20) at a concentration of 1-2 μg/ml, after which the resulting antibodies were injected into a CM5 chip with an anti-human Ig Fc fixed thereto at a flow rate of 30 μl/min for 10-120 seconds, and then captured in a range of 150-200 RU. Each antigen was used after being diluted at 10, 5, 2.5, 1.25, 0.625, 0.3125 and 0.15625 nM, after which the resulting antigens were sequentially injected from a lower concentration. Then, the resulting antigens were injected at a flow rate of 30 μl/min for 5 minutes to carry out binding, after which a running buffer was injected thereinto for 10-15 minutes to carry out a dissociation. 15 μl of 10 mM Glycine-HCl (pH 1.5) was used to revive the chip.

[2] = target: T2, cynomolgus monkey c-Met ECD (SiNo. Biological, 90304-CO8H) (cynomolgus monkey, UniProt A0A2K5UM36 25-932); assay: as above
T2 construct: not shown: The vendor's tag
Procedure: as §1

[3] = target: T3, human EGFR ECD strep (ACROBiosystems, EGR-H5285) (human, UniProt P00533 25-645); assay: as above
T3 construct: extracellular domain; Bought protein
Procedure: as §1

[4] = target: T4, cynomolgus monkey EGFR ECD (SiNo. Biological, 90285-008B) (cynomolgus monkey); assay: as above
T4 construct: extracellular domain
Procedure: as §1

[5] = target: T5, mouse EGFR (SiNo. Biological Inc, 51091-M08H) (mouse, UniProt Q01279 25-647); assay: ELISA, antigen coated at 2 µg/ml, antibody 6.4 pM to 100 nM, anti-human IgG F(ab')2-HRP, TMB, O.D. at 450 nm [panel Mouse EGFR]
T5 construct: extracellular domain
Procedure: (§2) Particularly, mouse c-Met (SiNo. Biological Inc, 50622-M08H), cynomolgus monkey c-Met (SiNo. Biological Inc, 90304-CO8H), human c-Met (R&D Systems, 358-MT), mouse EGFR (SiNo. Biological Inc, 51091-M08H), cynomolgus monkey EGFR (SiNo. Biological, 90285-008B) and human EGFR (Abcam, 155639) antigens were all divided into a 96-well plate at a concentration of 2 μg/ml, after which the resulting plate was reacted at 4° C. overnight.
(§3) Color development was made by using TMB (Sigma, T4444) solution, wherein its value was measured at an optical density of 450 nm and its ELISA results are shown in FIG. 9.

[6] = target: T6, mouse c-Met (SiNo. Biological Inc, 50622-M08H) (mouse, UniProt P16056 25-931); assay: ELISA, antigen coated at 2 µg/ml, antibody 6.4 pM to 100 nM, anti-human IgG F(ab')2-HRP, TMB, O.D. at 450 nm [panel Mouse cMet]
T6 construct: extracellular domain
Procedure: as §2, §3

Row | Binder | Kd [1] [pM] | koff [1] [s⁻¹] | kon [1] [M⁻¹ s⁻¹] | Kd [2] [pM] | koff [2] [s⁻¹] | kon [2] [M⁻¹ s⁻¹] | Kd [3] [pM] | koff [3] [s⁻¹] | kon [3] [M⁻¹ s⁻¹] | Kd [4] [pM] | koff [4] [s⁻¹] | kon [4] [M⁻¹ s⁻¹] | binding result [5] | binding result [6]
1 | B1 | 99.9 | 8.3e-05 | 831000 | – | – | – | – | – | – | – | – | – | – | –
2 | B2 | 278 | 0.000204 | 734000 | 434 | 0.000337 | 777000 | 1620 | 0.000126 | 77800 | 894 | 0.000127 | 142000 | no binding (tested: 100 nM) | no binding (tested: 100 nM)

From patent publication US20200231681A1 (CHONG KUN DANG PHARMACEUTICAL, published 2020)
